Source: patent publication US7338938B2, “Methods for treating a patient undergoing chemotherapy” (University of Southern California, priority 1999, dated 2008)
Entries after “also recorded” stand apart in the source; their conditions may differ. Non-standard residues stand in square brackets, D forms with d. No end group written: not given here. Phe(4-NH2) = Nc1ccc(C[C@H](N)C(=O)O)cc1

Assays:
[1] = Tests of AII fragments for effectiveness (method not described); conditions: test not specified
[2] = test system: animals given intravenous 5FU (white blood cells, CFU-GM); assay: Effect of AII on white blood cell mobilization and recovery after 5-fluorouracil (Example 1); format: in vivo, mice; conditions: AII 10 or 100 μg/kg/day s.c., started day -2, 0 or 2 relative to i.v. 5FU; day 7 or 14; all tissues tested (blood, spleen, thymus, bone marrow)
Experimental: This study was designed to test the effect of AII on the recovery of white blood cells in lymphoid organs and on the level of granulocyte macrophage precursors (CFU-GM) in the blood (ie: mobilization), spleen (mobilization), and bone marrow (recovery) after intravenous administration of 5-fluorouracil (5FU). […] The number of white blood cells in each of the lymphoid organs, or the number of CFU-GM present in all the organs except the thymus were then assessed.

[3] = test system: mice injected with 150 mg/kg 5FU intravenously (WBC, platelets, hemoglobin); assay: Effect of angiotensin fragments and ACE inhibitor on recovery after chemotherapy (Example 4); format: in vivo; conditions: for relative effect on increase in WBC (ranking of active agents): throughout the experimental period
Experimental: The next study was designed to test the effect of angiotensin peptides and the angiotensin converting enzyme inhibitor, enalapril, on recovery of white blood cells, platelets and hemoglobin after chemotherapy, as well as on granulocyte-macrophage colony forming units (GM-CFU) in the blood and bone marrow.
Female […] mice (4 per group), 6-8 weeks old, were injected with 150 mg/kg 5FU intravenously. Administration of the peptides (AII (100 μg/kg/day), AII(1-7) (10 or 100 μg/kg/day), AII(1-5) (10 or 100 μg/kg/day), and AII(1-6) (100 μg/kg/day)), by subcutaneous injection, or enalapril (30 mg/kg/day) by oral gavage, was begun 2 days after administration of the antineoplastic and continued daily until 28 days after 5FU administration, at which time the mice were euthanized for evaluation of white blood cell numbers, platelets, hemoglobin levels and the number of GM-CFU in the bone marrow and peripheral blood. On days 7, 10, 14 and 21 after 5FU administration, blood was taken under anesthesia from the retro-orbital sinus to assess white blood cell number, platelet number, and hemoglobin levels.
The mice were bled from the retro-orbital sinus at days 7, 10, 14 and 21. The mice were anesthetized with Metofane (an inhaled anesthesia). Approximately 150-200 μl of blood were obtained from the retro-orbital sinus with a heparinzed capillary tube. The blood was then placed in a 1.7 ml microfuge tube containing 10 mM EDTA and held on ice until further processing.
One hundred μl of blood was pipetted into a centrifuge tube, to which 900 μl of distilled water was added. The blood and water were mixed by inversion and allowed incubate at 4° C. for 20 minutes. The tube was then centrifuged at 12000 rpm to precipitate the cellular debri for 20 to 30 minutes at room temperature. Twenty μl of the supernatant from this centrifugation was then added into triplicate wells of a 96 well plate containing 180 μl of distilled water. The optical density, was then read using a microplate reader at […].
Twenty μl of blood was mixed with 200 μl of red blood cell (RBC) lysing solution (0.83% NH4Cl, 10 mM EDTA, 0.5% NaHCO3). The mixture was then incubated for 10 minutes at 4° C. After this incubation, the supernatant was removed and the pellet was resuspended in 100 μl of PBS. To this, 100 μl of 0.04% trypan blue was added. This mixture was vortexed and the number of WBC (baseline was approximately 10^7 cells/ml) was evaluated by hematocytometer under light microscopy and the number: of platelets (baseline was approximately 2.5×10^8 platelets/ml) was evaluated by hematocytometer under phase contrast microscopy.
The blood was harvested by cardiac puncture on day 10 to assess mobilization of myeloid progenitors into the peripheral blood. The femurs and tibia were also collected and the bone marrow was harvested by flushing with PBS containing 2% fetal calf serum. After collection of the blood and bone marrow, the red blood cells were lysed with a hypotonic solution (described above), mixed with 0.04% trypan blue, and the number of nucleated cells assessed by hematocytometer under light microscopy. Aliquots of cells were then resuspended at 1×10^5 cells/ml (bone marrow) or 1×10^6 cells/ml Flood). […]

[4] = test system: female C57B1/6 mice treated with 200 mg/kg cytoxan; conditions: 200 mg/kg cyclophosphamide i.v.
[5] = test system: AT2 receptor; conditions: cited from earlier work
[6] = test system: patients with newly diagnosed breast cancer receiving doxorubicin and cyclophosphamide
[7] = filgrastim 5.0 μg/kg/day comparator arm

**Q.** With His-Pro-Phe (HPF) [AII(6-8)] as the molecule, how does the effectiveness in tests [1] read?
**A.** not to be effective

**Q.** Which results are given for “Asp-Arg-Val-Tyr-Ile-His-Pro-Phe (DRVYIHPF) [AII]”?
**A.** white blood cell mobilization and/or recovery [2]: significantly enhanced; relative effect on increase in WBC (ranking of active agents) [3]: most profound effect

**Q.** With `CCOC(=O)[C@H](CCc1ccccc1)N[C@@H](C)C(=O)N1CCC[C@H]1C(=O)O` [enalapril, reference compound] as the molecule, how does the “relative effect on increase in WBC (ranking of active agents)” value [3] read?
**A.** least effective

**Q.** With Tyr-Ile-His-Pro-Phe (YIHPF) [AII(4-8)] as the molecule, how does the effectiveness in tests [1] read?
**A.** not to be effective; also recorded: ineffective

**Q.** Which platelets after administration ([3]; after i.v. 5FU) does the source give for Asp-Arg-Val-Tyr-Ile (DRVYI) [AII(1-5)] here?
**A.** increase in platelets

**Q.** With `O=P1(N(CCCl)CCCl)NCCCO1` (stereo not shown) [cyclophosphamide, reference compound] as the molecule, how does the “number of myeloid progenitors (GM-CFU) in the bone marrow after cyclophosphamide” value [4] read?
**A.** significantly reduced

**Q.** Which “affinity for AT2 relative to other receptor subtype” value [5] does the source give for “Asp-Arg-Val-Tyr-Ile-Xaa-Pro-Phe (DRVYI[Phe(4-NH2)]PF) [(p-NH2-Phe)6-AII]” here?
**A.** 100 times

**Q.** And the “binding characteristics in the experimental models tested” value [5]?
**A.** comparable’ to AT2 antagonists

**Q.** With DRVYIH [AII(1-6)] as the molecule, how does the “relative effect on increase in WBC (ranking of active agents)” value [3] read?
**A.** least effective

B1: Filgrastim: recombinant G-CSF (NEUPOGEN, Amgen, Inc.), comparator arm (protein, UniProt P09919 31-207, looked up)
Granulocyte …: TPLGPASSLPQSFLLKCLEQVRKIQGDGAALQEKLVSECATYKLCHPEELVLLGHSLGIPWAPLSSCPSQALQLAGCLSQLHSGLFLYQGLLQALEGISPELGPTLDTLQLDVADFATTIWQQMEELGMAPALQPTQGAMPAFASAFQRRAGGVLVASHLQSFLEVSYRVLRHLAQP
modifications: filgrastim, N-terminal methionine
**Q.** What does the source list for B1?
**A.** Alopecia (frequency by treatment group) ([6]; chemotherapy patients): 40%; Anemia (frequency by treatment group) ([6]; chemotherapy patients): 60%; Fatigue (frequency by treatment group) ([6]; chemotherapy patients): 80%; Headache (frequency by treatment group) ([6]; chemotherapy patients): 60%; Myalgia/Muscle-skeletal pain (frequency by treatment group) ([6]; chemotherapy patients): 60%; Nausea (frequency by treatment group) ([6]; chemotherapy patients): 100%; Stomatitis (frequency by treatment group) ([6]; chemotherapy patients): 60%; Vomiting (frequency by treatment group) ([6]; chemotherapy patients): 60%; Toxicity: ANC < 1000/μl (frequency) [6, 7]: 40%; Toxicity: Hgb < 10 gm/dl (frequency) [6, 7]: 60%; Toxicity: Lymph < 500/μl (frequency) [6, 7]: 80%; Toxicity: Platelet < 80 K/μl (frequency) [6, 7]: 60%; Toxicity: WBC < 2000/μl (frequency) [6, 7]: 60%; frequency of grade 3-4 neutropenia ([6]; filgrastim compared to AII(1-7)): lower frequency; change in platelet number ([6]; patients that received filgrastim, more pronounced in subsequent cycles): time dependent decrease in platelet number
